# Reference: the supplement of paper PMC9170038
# Test system: MS2 coat protein
# Assay: apparent KD of MS2 coat protein; designed switch direction (-1 OFF switch, 1 ON switch): 1; higher = weaker reporter binding
# Outline: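 For each design, the apparent KD is the median over clusters of curves fitted to normalised cluster fluorescence. Clusters held RNA switches with common flanks, transcribed on Illumina chips by stalled E. coli RNA polymerase. These were titrated with SNAP-549-labelled MS2 coat protein, doubling from 0.7 or 1.5 nM to 3 µM, without input, with 200 uM small-molecule ligand, or with an oligonucleotide input.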
# [1] = input ligand: microRNA oligo, concentration not stated
# [2] = Eterna round: R95, input ligand: FMN 200 uM
# [3] = Eterna round: R95, input ligand: microRNA oligo, concentration not stated
# [4] = Eterna round: R95, input ligand: none
Sequence,apparent KD of MS2 coat protein (input ligand: FMN 200 uM) [nM],apparent KD of MS2 coat protein [1] [nM],apparent KD of MS2 coat protein (input ligand: none) [nM],apparent KD of MS2 coat protein [2] [nM],apparent KD of MS2 coat protein [3] [nM],apparent KD of MS2 coat protein [4] [nM]
"GCGGAACGGGCCGACAUGAGGAUCACCCAUGUGCCCUCAUGUAAGGAUAUCGGGAAGAAGAAAACCGAGAAGGUACGGUGACGC [AK SSNG3-V2-30] (Eterna round: R96, puzzle: Same State NG 3)",945,51.5,137,,,
GUAAUACAUGAGGAUCACCCAUGUCAAUGUAGUCGAGGAUAUGGGUAGCUAUGAGGCUUACUAGAAGGCGACGAGC [Same State 1 - Mod of Vinnie Teenbexe v.5] (puzzle: Same State 1),,,,28,176,359
"GGAAUAUGAUGUUACAUGAGGAUCACCCAUGUAGUAAUAACUAAGGAUAUUUGAAAGGGAGGAGAAGAGAAGGUAGGAUCAUAA [AK SSNG3-V2-11] (Eterna round: R96, puzzle: Same State NG 3)",61,41.3,63.8,,,
CGGCUUGUACAUGAGGAUCACCCAUGUAUGUACAAGUUUUUGCUCGUCUUAUAAAUACGAUCUACCGAAAGGUAGAU [BIOPHYS241_ElaineNg_1] (puzzle: Sensor for hsa-mir-208a version 2),,,,276,18.7,236
AGUCCAGCCUGAGCUGGACAAAAGCGUGUACAUGAGGAUCACCCAUGUCAUGUACAAGCUUUUUGCUCGUCUUAAUA [Zipper 49 - 6] (puzzle: Sensor for hsa-mir-208a),,,,106,21.2,83.1
"UGAAUAGUGAUAGGAUAUACAUGAGGAAUCCUCGUAGAAGGAUCAUAACAUGAGGAUCACCCAUGUAGCGCUCAGAAGAGCGCA [Mat - Same State NG 1 - JL mod - D54] (Eterna round: R96, puzzle: Same State NG 1)",31.5,37.1,81.3,,,
"GUUACAUGAGGAUCACCCAUGUAUGUGUGGGAGUAAGUGUCUUAGGAUAUCUAGGAUUUAAUUUAAGAGAAGGAAGAUUGUUGU [JMF's solution 50] (Eterna round: R96, puzzle: Same State NG 3)",89.7,45.9,77.4,,,
GGCAUGCGGCGUACCGUAUGCUGGUAUGUACAUGAGGAUCACCCAUGUCAUGUACAGGCUUUUUGCUCGUCUUAUUG [JL-shm-2.40 JL mod] (puzzle: Sensor for hsa-mir-208a),,,,128,28.7,157
UGUCCAGCCUGAGCUGGACAAAAGCAUGUACAUGAGGAUCACCCAUGUUCAUGUACAAGCUUUUUGCUCGUCUUAGC [salish99_208a_r3_067] (puzzle: Sensor for hsa-mir-208a),,,,624,13.6,547
"CCAAUGUACAAUUUAGAUCUACAUGAGGAUCACCCAUGUACAGAGGAUAUCAGCUCGAAUAGAGCUGAGAAGGCUGAAUUAAUU [SSNG3/3-A1] (Eterna round: R96, puzzle: Same State NG 3)",88.2,153,226,,,
CGGGUACAUGAGGAUCACCCAUGUGGGAGGGAUGCAGGAUAUGUGGGAAAAGGGUAUGUAACAGAAGGGCAAGGAG [JR_SS!_Sub014] (puzzle: Same State 1),,,,30.8,31.8,45.1
UCUUGGUUUUUGCUCGUUUUUUGUGUUGAACAUGAGGAUCACCCAUGUAUUGUACGGUCCGGUUUAGUGAUGAUCCG [JMF 73] (puzzle: Sensor for hsa-mir-208a),,,,39.1,31.3,45.6
"UUAAUUUACUGAGGAUAUCGUGUCGACUGAGGUGACAUGAGGAUCACCCAUGUGAGAAGAGGUAUCGAGAAGGCAGUAUUCAUA [JR_SSNG2_Sub021] (Eterna round: R96, puzzle: Same State NG 2)",317,545,1120,,,
"GGUCGGACUCACAUGAGGAUCACCCAUGUUCCGGAAACGGGAUAGGAUAUCUGUCCGAAAAGGUCAGAGAAGGGUCUACCGACC [Fiskers NG3ss - 55] (Eterna round: R96, puzzle: Same State NG 3)",1050,236,519,,,
GUUAUACAUGAGGAUCACCCAUGUCAAUGUAGUCGAGGAUAUGGGCAGCUAUGAGGCGUACUAGAAGGCGAGAAGU [Mat - Same State 1 - Mod of JL - D15] (puzzle: Same State 1),,,,125,268,437
UAGAGAGGAAGCGAGGAUAUCGUGUGAGGAACAUGAGGAUCACCCAUGUGUGAUGUUGAGAGAGACGAGAAGGCGCAGGAGAUUA [JR_SS2_Sub083] (puzzle: Same State 2),,,,87.5,150,140

Sequence,apparent KD of MS2 coat protein (input ligand: FMN 200 uM) [nM],apparent KD of MS2 coat protein [1] [nM],apparent KD of MS2 coat protein (input ligand: none) [nM],apparent KD of MS2 coat protein [2] [nM],apparent KD of MS2 coat protein [3] [nM],apparent KD of MS2 coat protein [4] [nM]
AGUCCAGCCUGAGCUGGACAAAAGCAUGUACAUGAGGAUCACCCAUGUUCAUGUACAAGCUUUUUGCUCGUCUUAGG [salish99_208a_r3_062] (puzzle: Sensor for hsa-mir-208a),,,,375,21.8,686
"UUUCGAUAGAUAGGAUAUCACUUUACAUGAGGAUCACCCAUGUUGGCUGUGCUGAUUAUUAAAACUGAGAAGGAUCUUGAUGAC [JR_SSNG2_Sub003] (Eterna round: R96, puzzle: Same State NG 2)",25.2,22,23.5,,,
"UCGAGCGUACUUGCAGACAUGAGGAUCACCCAUGUAAAUGGGAAGGAUAUGGUACCGUUUCGGUACCAGAAGGUCCUACGUGCU [salish99_SSNG3_r04_305] (Eterna round: R96, puzzle: Same State NG 3)",325,48.8,144,,,
"GUGGUCAGACAUGAGGAUCACCCAUGUGGAAUAAAUAACAGACAGGAUAUCCAAUAUAGGAUAUAGGAGAAGGGUCGAUUGGUG (Eterna round: R96, puzzle: Same State NG 3)",,56.9,,,,
"GUACAGAUUAUAGGAUAUCACGUCGUUUAGACGUGAGAAGGAUAAUCACACAUGAAUAUUAAUACAUGAGGAUCACCCAUGUAC [SSNG1/17-A3] (Eterna round: R96, puzzle: Same State NG 1)",18.4,17.5,18.5,,,
AGCUAUCGAAAACGAUAGCAAAAGCGUGUACAUGAGGAUCACCCAUGUCAUGUACAAGCUUUUUGCUCGUCUUAAAA [Zipper 23 - 6] (puzzle: Sensor for hsa-mir-208a),,,,34,14.4,41.8
"GGAGCCAAGGCAGGAUAUUCAUUAUAAAUUACAUGAGGAUCACCCAUGUUGGCCAGAAGGCCAUGGGAGAAGGGCCAUGGCUCG [Xeonanis - 13 mod25] (Eterna round: R96, puzzle: Same State NG 2)",39.7,280,322,,,
"GUUACAUGAGGAUCACCCAUGUAUGUGUGGGAGUAAGUGUCUUAGGAUAUCUAGUAUUUAAUUUGAGAGAAGGAAGAUUGUUGU [JMF's solution 70] (Eterna round: R96, puzzle: Same State NG 3)",138,83.9,147,,,
"AGAGGAGGAGCAGGAUAUUCGAAGAAGGACGUGGAAGAAGGGUUCAUGCGAUGACAUGAGGAUCACCCAUGUACCGCGCGUUGA [AK SSNG1-V2-14] (Eterna round: R96, puzzle: Same State NG 1)",185,78.6,156,,,
"UGAAGAUCCAUAGGAUAUCCGACACAUGAGGAUCACCCAUGUCAACCAAACGCAGCUUCGGCCGUGGAGAAGGAUGGAGCUGUG [Eternabot solution 3] (Eterna round: R96, puzzle: Same State NG 2)",72.4,41.5,76.4,,,
"GGUCGGACAUGAGGAUCACCCAUGUGGUGAGCGGAAACGCCAUAGGAUAUCUGUCCGAAAAGGUCAGAGAAGGGUGAACCGACC [Fiskers NG3ss - 68] (Eterna round: R96, puzzle: Same State NG 3)",184,311,135,,,
"AUUGCUUACGCAGGAUAUGAUGCGAAAAUUGCGUCAGAAGGGUGAAGUGACUCGUUGCAACAGGACAUGAGGAUCACCCAUGUC [SameState NG1 #91] (Eterna round: R96, puzzle: Same State NG 1)",89,127,141,,,
"AAACUAGGCGGUCCAACAUGAGGAUCACCCAUGUAAAAUUCAUAGGAUAUGCCUAUAGAAACAAGGCAGAAGGGUGAGACCGCA [Atsoorle] (Eterna round: R96, puzzle: Same State NG 3)",68.6,93.7,134,,,
"GAAAAACAUGAGGAUCACCCAUGUGUAAACAAGGGAGGAUAUACAAAGACGUAAGUCAAAGUAGAAGGCCUAAAAG [Garnet 38] (Eterna round: R96, puzzle: Same State 1)",19.6,54.3,71.8,,,
"GAGUGGUUGGGAGGAUAUGCAUUGUUAUUAAAUGCAGAAGGUUUUAACAUGAGGAUCACCCAUGUAGGACUAUUCCUGUGUUUC [Parity 68 - Jieux - Same State NG 1] (Eterna round: R96, puzzle: Same State NG 1)",,12.6,,,,
